This is an account of results in patent publication US20250019453A1 (SYNTHEKINE, published 2025).

Experiment [1] has as its target T1, hIL2Rb-his (human, UniProt P14784 27-240).
T1 sequence: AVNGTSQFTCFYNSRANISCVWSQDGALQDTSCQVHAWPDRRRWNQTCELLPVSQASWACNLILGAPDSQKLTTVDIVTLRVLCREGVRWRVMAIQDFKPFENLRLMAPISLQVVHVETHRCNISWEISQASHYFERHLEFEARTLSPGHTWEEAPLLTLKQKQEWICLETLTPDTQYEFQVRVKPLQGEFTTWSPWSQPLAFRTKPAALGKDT
Put plainly: SPR; ratio of experimental to calculated Rmax. As to the method: (§1) A representative example from each hIL2Rb VHH clonotype generated as descried above was selected for evaluation of binding via SPR as follows. Evaluation of binding affinity of the hIL2Rb binding molecules shown in Table 16 was conducted using surface plasmon resonance (SPR) in substantial accordance with the following procedure. All experiments were conducted in 10 mM Hepes, 150 mM NaCl, 0.05% (v/v) Polysorbate 20 (PS20) and 3 mM EDTA (HBS-EP+ buffer) on a Biacore T200 instrument equipped with a Protein A derivatized sensor chip (Cytiva). Mono-Fc VHH ligands were flowed at 5 μl/min for variable time ranging from 18 to 300 seconds, reaching the capture loads listed in the tables below. Following ligand capture, injections of a 2-fold dilution series of the extracellular domain of the IL2Rb-receptor modified to incorporate a C-terminal poly-His sequence, typically comprising at least five concentrations between 1 μM and 1 nM, were performed in either high performance or single cycle kinetics mode. Surface regeneration was achieved by flowing 10 mM glycine-HCl, pH 1.5 (60 seconds, […]). Buffer-subtracted sensograms were processed with Biacore T200 Evaluation Software and globally fit with a 1:1 Langmuir binding model (bulk shift set to zero) to extract kinetics and affinity constants (kₐ, kd, KD). RMAX<100 RU indicates surface density compatible with kinetics analysis. Calculated Rₘₐₓ values were generated using the equation: Rmax=Load (RU)×valency of ligand×(Molecular weight of analyte/Molecular weight of ligand). Surface activity was defined as the ratio of experimental/calculated Rmax.

Experiment [2] has as its target T1, hIL2Rb-his. Put plainly: SPR Biacore T200; Mono-Fc VHH captured on Protein A chip, hIL2Rb-his analyte; 1:1 Langmuir fit. The procedure:
as §1

For experiment [3], the target named is T2, hIL2Rg-his (Sino Biological, Catalog# 10555) (human, UniProt P31785 23-262).
T2 construct: Bought; also called extracellular domain of hIL2Rg
T2 sequence: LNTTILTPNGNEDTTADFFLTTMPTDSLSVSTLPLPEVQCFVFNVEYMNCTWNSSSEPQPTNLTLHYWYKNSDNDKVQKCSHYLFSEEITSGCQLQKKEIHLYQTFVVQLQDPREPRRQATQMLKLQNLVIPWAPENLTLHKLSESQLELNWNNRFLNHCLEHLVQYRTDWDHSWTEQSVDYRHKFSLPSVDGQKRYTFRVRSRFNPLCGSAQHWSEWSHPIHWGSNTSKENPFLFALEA
Put plainly: SPR; ratio of experimental to calculated Rmax. The text has this: (§2) To confirm and evaluate binding affinities of the binding of the IL2Rg sdAbs, a representative example from each clonotype generated was selected for evaluation of binding via SPR. […] Buffer-subtracted sensograms were processed with Biacore T200 Evaluation Software and globally fit with a 1:1 Langmuir binding model (bulk shift set to zero) to extract kinetics and affinity constants (kₐ, kd, KD). RMAX<100 RU indicates surface density compatible with kinetics analysis. Calculated Rₘₐₓ values were generated using the equation: Rmax=Load (RU)×valency of ligand×(Molecular weight of analyte/Molecular weight of ligand). Surface activity was defined as the ratio of experimental/calculated Rmax.
Calculated Rmax were generated using the equation Rmax=Load (RU)×valency of ligand×(Molecular weight of analyte/Molecular weight of ligand. Surface activity was defined as the ratio experimental/calculated Rmax. See tables 16 and 17 below for sample information and experimental results.

In experiment [4] the target is T2, hIL2Rg-his (Sino Biological, Catalog# …). Put plainly: SPR Biacore T200; Mono-Fc VHH captured on Protein A chip, hIL2Rg-his analyte; 1:1 Langmuir fit.
Description: as §2
All experiments were conducted in 10 mM Hepes, 150 mM NaCl, 0.05% (v/v) Polysorbate 20 (PS20) and 3 mM EDTA (HBS-EP+ buffer) on a Biacore T200 instrument equipped with a Protein A chip (Cytiva). Mono-Fc VHH ligands were flowed at 5 μl/min for variable time ranging from 18 to 300 seconds, reaching the capture loads listed in the tables below.
Following ligand capture, injections of a 2-fold dilution series of his-tagged cytokine receptors typically comprising at least five concentrations between 1 μM and 1 nM were performed in either high performance or single cycle kinetics mode. Surface regeneration was achieved by flowing 10 mM glycine-HCl, pH 1.5 (60 seconds, 50 μL/min). Buffer-subtracted sensograms were processed with Biacore T200 Evaluation Software and globally fit with a 1:1 Langmuir binding model (bulk shift set to zero) to extract kinetics and affinity constants (kₐ, kd, KD). RMAX<100 RU indicates surface density compatible with kinetics analysis.

A further experiment deals with T3, hIL2Rb ECD antigen (human, UniProt P14784 27-240).
T3 construct: The immunogen was the ECD fused to human IgG1 hinge and Fc; also called ECD of IL2Rb (human); human IL-2Rβ
T3 sequence: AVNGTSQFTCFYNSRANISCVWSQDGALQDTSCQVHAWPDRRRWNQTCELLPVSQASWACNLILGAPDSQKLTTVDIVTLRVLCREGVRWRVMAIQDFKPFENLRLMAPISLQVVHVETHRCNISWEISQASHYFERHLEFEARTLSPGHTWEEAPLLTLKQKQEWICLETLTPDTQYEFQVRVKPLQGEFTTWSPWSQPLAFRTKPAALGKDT
Put plainly: PE-ELISA of phage clones. Background: In an ELISA, binding on a coated surface is turned into a signal by an enzyme label.

B1: hIL2Rb_VHH2 Mono-Fc VHH (Fc fusion, not shown: a dimerising Fc or GST)
chain: QVQLQESGGGLVQPGGSLRLSCVASGFTFSNYWIFWVRQAAGKGLEWLSTSNTGGDTTKYADSVKGRFTISRDSAKNTEYLQMNSLKPEDTAVYYCETGRCARSGGYQGTQVTVSS
Turning to B1, in the experiment with hIL2Rb-his [1], the “Surface Activity” value was 26%. In the experiment with hIL2Rb-his [2], the equilibrium dissociation constant (Kd) stood at 16 nM, the off-rate (koff) came out at 0.00224 s⁻¹ and the association rate constant (kon) turned out to be 139000 M⁻¹ s⁻¹.

B2: hIL2Rb_VHH3 Mono-Fc VHH (Fc fusion, not shown: a dimerising Fc or GST)
chain: QVQLQESGGGLVQPGGSLKLSCAASGFRFSNYGMSWVRQAPGEGLEWVSYINGDGSRTHYADSVKGRFTISRDNAKNTLYLQLNSLKTEDTAMYYCEKGLSRDGWSLSAASRGQGTQVTVSS
B2: the “Surface Activity” value in the experiment with hIL2Rb-his [1] was 52%. In the experiment with hIL2Rb-his [2], this molecule displayed a Kd of 47 nM, an off-rate constant (koff) of 0.00699 s⁻¹ and an association rate constant (kon) of 157000 M⁻¹ s⁻¹.

B3: hIL-2Rg_VHH21 Mono-Fc VHH (Fc fusion, not shown: a dimerising Fc or GST)
chain: QVQLQESGGGSVQAGGSLRLSCVASGYTSCMGWFRQAPGKEREAVATIYTRGRSIYYADSVKGRFTISQDNAKNTLYLQMNSLKPEDIAMYSCAAGGYSWSAGCEFNYWGQGTQVTVSS
Take B3: the “Surface Activity” value in experiment [3] is 6%. Besides, in experiment [4], the affinity, expressed as Kd, was 17.2 nM; the off-rate constant (koff) is 0.00113 s⁻¹; the kon was 65600 M⁻¹ s⁻¹.

B4: hIL-2Rg_VHH22 Mono-Fc VHH (Fc fusion, not shown: a dimerising Fc or GST)
chain: QVQLQESGGGLVQPGGSLRLSCTASGFSFSSYPMTWARQAPGKGLEWVSTIASDGGSTAYAASVEGRFTISRDNAKSTLYLQLNSLKTEDTAMYYCTKGYGDGTPAPGQGTQVTVSS
With B4, the “Surface Activity” value in experiment [3] was 108%. In experiment [4], this molecule gave a Kd of 6.4 nM, an off-rate constant (koff) of 0.00354 s⁻¹ and a kon of 554000 M⁻¹ s⁻¹.

B5: hIL-2Rg_VHH8 Mono-Fc VHH (Fc fusion, not shown: a dimerising Fc or GST)
chain: QVQLQESGGGSVQAGGSLRLSCVASGYTFSSYCMGWFRQAPGKEREGVAALGGGSTYYADSVKGRFTISQDNAKNTLYLQMNSLKPEDTAMYYCAAAWVACLEFGGSWYDLARYKHWGQGTQVTVSS
With B5, the “Surface Activity” value in experiment [3] is 110%. In experiment [4], this molecule showed an equilibrium dissociation constant (Kd) of 2.2 nM, a dissociation rate constant (koff) of 0.000812 s⁻¹ and an on-rate (kon) of 366000 M⁻¹ s⁻¹.

B6: hIL-2Rg_VHH19 Mono-Fc VHH (Fc fusion, not shown: a dimerising Fc or GST)
chain: QVQLQESGGGSVQAGGSLRLSCTASGFTFDDREMNWYRQAPGNECELVSTISSDGSTYYADSVKGRFTISQDNAKNTVYLQMDSVKPEDTAVYYCAADFMIAIQAPGAGCWGQGTQVTVSS
For B6, the “Surface Activity” value in experiment [3] was 33%. Further, in experiment [4], the equilibrium dissociation constant (Kd) was found to be 2.4 nM, the koff was determined as 0.00693 s⁻¹ and the kon is 2.85e+06 M⁻¹ s⁻¹.

B7: hIL2Rb_VHH8 Mono-Fc VHH (Fc fusion, not shown: a dimerising Fc or GST)
chain: QVQLQESGGGSVQVGGSLKLSCAASGYTYSSYYCMGWFRQAPGKEREGVAAIDSDGSTSYADSVKGRFTISQDDAKNTLYLQMNSLKPEDTAMYYCAASYEVVDCYPSGYGQDYWGKGTQVTVSS
Regarding B7, the Surface Activity in the experiment with hIL2Rb-his [1] is less than 5%.

B8: hIL2Rb_VHH-8 (VHH)
VHH: QVQLQESGGGSVQVGGSLKLSCAASGYTYSSYYCMGWFRQAPGKEREGVAAIDSDGSTSYADSVKGRFTISQDDAKNTLYLQMNSLKPEDTAMYYCAASYEVVDCYPSGYGQDYWGKGTQVTVSS
notes: As a his-tagged phage clone periplasmic extract
Take B8: the binding result with hIL2Rb ECD antigen is given as “binds”.

B9: hIL2Rb_VHH7 Mono-Fc VHH (Fc fusion, not shown: a dimerising Fc or GST)
chain: QVQLQESGGGSVQAGGSLRLSCAASGYEYCRIHMTWYRQGPGKEREFVSSIGSDGRKTYANSVTGRFTISRDNANHTVYLQMNSLSPEDTAMYYCKTEYLYGLGCPDGSAYWGQGTQVTVSS
For the molecule B9, the “Surface Activity” value with hIL2Rb-his [1] was 43%. In the experiment with hIL2Rb-his [2], this molecule had a Kd of 1.1 nM, a koff of 0.00317 s⁻¹ and an on-rate constant (kon) of 2.86e+06 M⁻¹ s⁻¹.

B10: hIL2Rb_VHH5 Mono-Fc VHH (Fc fusion, not shown: a dimerising Fc or GST)
chain: QVQLQESGGGSVQVGGSLRLSCATSGDTKSIRCMGWFRQTPGKEREGIAAIDREGFATYADSVYDRFTIAQDNAQNTLYLEMNALKPEDTAMYYCAAQNMCRVVRGAMTGVDYWGKGTQVTVSS
As for B10, in the experiment with hIL2Rb-his [1], the “Surface Activity” value is 42%. In the experiment with hIL2Rb-his [2], this molecule returned a Kd of 0.4 nM, a dissociation rate constant (koff) of 0.00154 s⁻¹ and a kon of 3.82e+06 M⁻¹ s⁻¹.

B11: hIL2Rb_VHH4 Mono-Fc VHH (Fc fusion, not shown: a dimerising Fc or GST)
chain: QVQLQESGGGSVQTGGSLRLSCAVSGYTTYSFNYMGWFRQAPGKEREGVAVIYTGGGSTLYADSVKGRFTISQDNAKNTVYLQMNSLKPEDTAMYYCAADDQRFASPLYAYFGYWGQGTQVTVSS
Take B11: the “Surface Activity” value with hIL2Rb-his [1] is 96%. In the experiment with hIL2Rb-his [2], this molecule came in with a Kd of 3.4 nM, a dissociation rate constant (koff) of 0.00205 s⁻¹ and an association rate constant (kon) of 600000 M⁻¹ s⁻¹.

B12: hIL2Rb_VHH1 Mono-Fc VHH (Fc fusion, not shown: a dimerising Fc or GST)
chain: QVQLQESGGGSVQAGGSLRLSCVGSGYTYDTSDMSWYRQAPGKEREFVSDIDSGDWAAYADAVKGRFTISRDNAKKTVYLQMNSLEPEDTAMYYCKASYWKWGKLNNFWGPGTQVTVSS
As for B12, the “Surface Activity” value with hIL2Rb-his [1] was 37%. In the experiment with hIL2Rb-his [2], this molecule yielded a dissociation constant (Kd) of 1 nM, a dissociation rate constant (koff) of 0.0199 s⁻¹ and a kon of 1.98e+07 M⁻¹ s⁻¹.

B13: hIL-2Rg_VHH20 Mono-Fc VHH (Fc fusion, not shown: a dimerising Fc or GST)
chain: QVQLQESGGGSVQAGGSLRLSCTASGFTFDDSDMGWYRQAPGNECELVSTISSDGSTYYADSVKGRFTISQDNAKNTVYLQMNSLKPEDTAVYYCAAEPRGYYSNYGGRRECNYWGQGTQVTVSS
Consider B13, for which the “Surface Activity” value in experiment [3] was 48%. In experiment [4], this molecule registered a dissociation constant Kd of 14.1 nM, a koff of 0.0027 s⁻¹ and a kon of 192000 M⁻¹ s⁻¹.

B14: hIL-2Rg_VHH15 Mono-Fc VHH (Fc fusion, not shown: a dimerising Fc or GST)
chain: QVQLQESGGGLVQPGGSLRLSCAASGFTFSSAHMSWVRQAPGKGREWIASIYSGGGTFYADSVKGRFTISRDNAKNTLYLQLNSLKAEDTAMYYCATNRLHYYSDDDSLRGQGTQVTVSS
On to B14, for which the “Surface Activity” value in experiment [3] was 73%. In experiment [4], this molecule had a Kd of 26 nM, an off-rate (koff) of 0.00251 s⁻¹ and a kon of 96800 M⁻¹ s⁻¹.

B15: hIL2Rb_VHH6 Mono-Fc VHH (Fc fusion, not shown: a dimerising Fc or GST)
chain: QVQLQESGGGSVQAGGSLRLSCAASEYTASRYCMAWFRQAPGKEREGVAAIHPGGGTTYYADSVKGRFSISQDSADNTLYLQMNSLKPEDTAMYYCAAGSLWVPFGDRCAANYWGQGTQVTVSS
Turning to B15, the “Surface Activity” value with hIL2Rb-his [1] is 53%. In the experiment with hIL2Rb-his [2], the dissociation constant (Kd) stood at 1.2 nM, the koff was found to be 0.0229 s⁻¹ and the kon turned out to be 1.9e+07 M⁻¹ s⁻¹.

In general, Kd refers to the equilibrium constant for the complex coming apart. The low end stands for higher affinity, the high end for lower affinity. What is called koff is a measure of how fast the partners let go of each other. Low readings indicate a long-lived complex, high ones a short-lived complex. By kon is commonly meant the rate constant with which the complex forms.
